From patent publication US9592268B2, “Endothelium protective materials and methods of use” (CORNELL UNIVERSITY, priority 2011, dated 2017)

Assays:
HUVEC [1] = assay: HUVEC migration (chemotaxis chamber) assay; format: cell-based, human
Experimental: FIG. 4. ApoM-bound S1P activates S1P1-mediated intracellular signaling pathways and affects migration of HUVEC. (A) Confocal microscopy of HEK293 cells stably expressing S1P1-GFP. Cells were serum starved, stimulated for 1 h with indicated ligands, fixed and imaged. ApoM^+HDL (equivalent to ˜100 nM S1P as determined by LC/MS/MS) or ApoM^−HDL was used at 100 μg/ml. Fatty acid free BSA and r-apoM were complexed with S1P and used at the final concentration of 100 nM (equimolar for both protein and lipid). Scale bar, 20 μm. […] Activation of p44/42, and Akt was examined by western blot analysis using phospho-specific antibodies. (C) HUVEC were serum starved and pre-treated with 1 μM VPC44116 for 30 min where indicated and subjected to migration assay with 10 μg/ml apoM^+HDL (10 nM S1P) or 10 μg/ml apoM^−HDL or 10 nM albumin-S1P. Data are mean±SD, n=3. * p<0.01. (D) Microscopy of HUVEC that were serum starved and stimulated with 100 μg/ml apoM^+HDL, apoM^−HDL, 100 nM albumin-S1P, r-apoM-S1P or 100 nM S1P-free r-apoM for 1 h. […] Scale bar, 20 μm. […]
General Methods. […] Numerical differences were analyzed with two-tailed Student's t test.
Migration Assays. […] The filter was scanned, and the color density of each well was quantified using ImageJ software. […]

S1P1 receptor = molecular target: T1, S1P1 receptor (Homo sapiens, UniProt P21453); assay: S1P1 internalization in HEK293 cells stably expressing S1P1-GFP; format: cell-based; conditions: stimulated 1 h; HDL 100 μg/ml; S1P complexes 100 nM
T1 construct: expressed in transfected cells
T1 sequence (P21453 whole entry): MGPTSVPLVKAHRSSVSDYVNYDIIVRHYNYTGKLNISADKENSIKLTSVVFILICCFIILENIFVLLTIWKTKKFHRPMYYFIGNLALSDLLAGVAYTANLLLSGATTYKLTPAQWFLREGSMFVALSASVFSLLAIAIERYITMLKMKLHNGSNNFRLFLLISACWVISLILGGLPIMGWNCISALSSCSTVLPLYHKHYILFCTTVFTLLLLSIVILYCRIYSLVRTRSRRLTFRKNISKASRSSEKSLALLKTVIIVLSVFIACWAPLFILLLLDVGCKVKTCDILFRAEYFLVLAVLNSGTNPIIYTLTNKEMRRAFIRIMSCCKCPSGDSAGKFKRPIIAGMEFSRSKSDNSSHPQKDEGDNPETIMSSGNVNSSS
Experimental: (§1) FIG. 4. ApoM-bound S1P activates S1P1-mediated intracellular signaling pathways and affects migration of HUVEC. (A) Confocal microscopy of HEK293 cells stably expressing S1P1-GFP. Cells were serum starved, stimulated for 1 h with indicated ligands, fixed and imaged. ApoM^+HDL (equivalent to ˜100 nM S1P as determined by LC/MS/MS) or ApoM^−HDL was used at 100 μg/ml. Fatty acid free BSA and r-apoM were complexed with S1P and used at the final concentration of 100 nM (equimolar for both protein and lipid). Scale bar, 20 μm. […] Activation of p44/42, and Akt was examined by western blot analysis using phospho-specific antibodies. (C) HUVEC were serum starved and pre-treated with 1 μM VPC44116 for 30 min where indicated and subjected to migration assay with 10 μg/ml apoM^+HDL (10 nM S1P) or 10 μg/ml apoM^−HDL or 10 nM albumin-S1P. Data are mean±SD, n=3. * p<0.01. (D) Microscopy of HUVEC that were serum starved and stimulated with 100 μg/ml apoM^+HDL, apoM^−HDL, 100 nM albumin-S1P, r-apoM-S1P or 100 nM S1P-free r-apoM for 1 h. […] Scale bar, 20 μm. HUVEC were serum starved and stimulated for 5 min with 30 nM albumin-S1P, r-apoM-S1P, 10 μg/mL ApoM+ HDL, or 30 nM S1P-free r-apoM (E) or with increasing concentrations of albumin or r-apoM-S1P (F). […]
General Methods. […] Numerical differences were analyzed with two-tailed Student's t test. […]

HUVEC [2] = assay: adherens junction assembly assay (VE-cadherin immunostaining) in HUVEC; format: cell-based, human; conditions: HUVEC stimulated 1 h; HDL 100 μg/ml; S1P complexes or r-apoM 100 nM
Experimental: as §1, with “(F). Activation of p44/42 and Akt was examined by Western blot analysis using phospho-specific antibodies.” for “(F).”

VCAM-1 = assay: TNFα-induced cell surface VCAM-1 expression in HUVEC by flow cytometry; format: cell-based, human; conditions: for suppression of cytokine-induced VCAM-1 expression: human endothelial cells (FIG. 9)
Experimental: FIG. 9. ApoM/S1P inhibition of endothelial cell VCAM-1 expression. Human umbilical vein endothelial cells (HUVEC) were treated with TNFα for 3 hr. Some cells were co-treated with recombinant (r)ApoM (100 nM) or rApoM/S1P complex (100 nM) or albumin/S1P complex (100 nM) for the same amount of time. The cells were then analyzed for the cell surface expression of Vascular cell adhesion molecule (VCAM)-1 by flow cytometry. Note that ApoM/S1P complex inhibited (˜40%) TNFα-induced VCAM-1 expression.
Inflammation of vascular endothelial cells is a critical initiating event in atherosclerosis, which leads to heart attacks and strokes. Endothelial cell inflammation is induced by cytokines such as TNFα and IL-1β. When endothelial cells are exposed to such cytokines, an inflammatory program of gene expression is induced, resulting in the formation of adhesion molecules such as VCAM-1, which in turn is needed for the recruitment of monocytes into the blood vessel wall. […] Thus, ApoM/S1P complexes can be used to suppress vascular inflammation as a potential treatment for atherosclerosis.

Row | Molecule | chemoattractant activity compared with albumin-bound S1P (HUVEC [1]; increasing concentrations (FIG. 4G)) | chemotaxis of HUVEC toward chemoattractant (HUVEC [1]; serum-starved HUVEC, 4 h at 37° C.) | internalization of GFP-S1P1 receptor (S1P1 receptor) | adherens junction and F-actin formation (HUVEC [2]) | inhibition of TNFα-induced VCAM-1 expression (VCAM-1; 100 nM, co-treated with TNFα for 3 hr) [%] | suppression of cytokine-induced VCAM-1 expression (VCAM-1)
1 | r-apoM-bound S1P: S1P complexed with equi-molar recombinant apoM (protein, UniProt O95445 1-188, looked up, complexed with S1P) Apolipoprotein M: MFHQIWAALLYFYGIILNSIYQCPEHSQLTTLGVDGKEFPEVHLGQWYFIAGAAPTKEELATFDPVDNIVFNMAAGSAPMQLHLRATIRMKDGLCVPRKWIYHLTEGSTDLRTEGRPDMKTELFSSSCPGGIMLNETGQGYQRFLLYNRSPHPPEKCVEEFKSLTSCLDSKAFLLTPRNQEACELSNN | slightly higher activity | worked as chemoattractants in a concentration-dependent manner | induced robust internalization | well-spread, contained F-actin and formed adherens junctions | ~40 | significant suppression
2 | r-apoM without S1P: recombinant apoM not complexed with S1P (protein, UniProt O95445 1-188, looked up) Apolipoprotein M: MFHQIWAALLYFYGIILNSIYQCPEHSQLTTLGVDGKEFPEVHLGQWYFIAGAAPTKEELATFDPVDNIVFNMAAGSAPMQLHLRATIRMKDGLCVPRKWIYHLTEGSTDLRTEGRPDMKTELFSSSCPGGIMLNETGQGYQRFLLYNRSPHPPEKCVEEFKSLTSCLDSKAFLLTPRNQEACELSNN | – | – | Neither apoM^−HDL nor r-apoM without S1P caused receptor internalization | not efficiently induced | – | not seen
